This series in a line: soluble on expression in E. coli; label from the status in PepcDB or PDB records.
In the case of “MAHHHHHHMKALQRGWRVICATRGGVPIHGSPLYNDFTSLQQKHGDTLSQGVAHDTCHVPQPLEFVSLDATSRLQVFQFMDDHPDASAIISCIGLLTRDHEMARRVCGDANVNIAAALYERRAVARRMVLISAEPVGTRAGFFLNSRWALKGYFMGKRVAERAVLENLGDDGAVLRPGFIYGTRHVPLGEGCVPVPLWPIGKPLEAVLRPLHLHGLLVPPISVDVVAEAAVRLAEAPGPSTVLDYYGMQQVCGLPQDGHHVLGG”, the “soluble on expression in E. coli” value is “not soluble”.
In the case of “MQVIVGHSSTRLPENNENGHTHKWTLFVKPGNRDYDEFPDNKLIQKVKFEIHESFAQPVRFVTKPPFKITETGFASFTTLVTIFLNLPNEKPRTIPYELTLFTGDQDVQLETQKLVVQKDVPPAYLELIKKYARTKKRKASLISNDEKSPSRKMHKITPVKEEESSQKMSKSKEKGVPIPKIDIEIEKASPKKEKKEKVKSPEELTRRLNECTDSHVIYKASEYLLTLPDTKLSQTTLKLSFDLSRCDSTTLMDIGRILKGKKAKK”, the “soluble on expression in E. coli” value was “not soluble”.
On to “GMAEDQTVLAIDIGGSHVKIGLSTDGEERKVESGKTMTGPEMVAAVTAMAKDMTYDVIAMGYPGPVVHNKPLREPVNLGEGWVGYDYEGAFGRPVRIVNDALMQAIGSYNGGRMLFLGLGTGLGAAMIVENVAQPMEIAHLPYRKGKTYEHYVSEAYREKKGNAKWQKRVQDVVERLSAALEPDEVVIGGGNVERLENLPPKCRRGDNAMAFEGGFRLWKNADLIV”, for which the “soluble on expression in E. coli” value is recorded as “soluble”.
Take “MFRVITRGAHTAASRQALIEKIIRVDHAGELGADRIYAGQLAVLQGSSVGSVIKKMWDEEKEHLDTMERLAAKHNVPHTVFSPVFSVAAYALGVGSALLGKEGAMACTIAVEELIGQHYNDQLKELLADDPETHKELLKILTRLRDEELHHHDTGVEHDGMKAPAYSALKWIIQTGCKGAIAIAEKI”: the “soluble on expression in E. coli” value was “not soluble”.
For “MSHALRAVFLDHASLDLGDLDMRPLRAAFDELQLHAASQPQEVAARLHDARVAISNKVPIDAQCIAACPELELILISATGTNNIDLAAARERGIVVANCHGYGTPSVAQHTLALLLALATRLPDYQQAVRSGRWQQSSQFCLLDFPIVELEGKTLGLLGHGELGGAVARLAEAFGMRVLLGQLPGRPARADRLPLGELLPRVDALTLHCPLTEDTRGMLGSAELALMKPGAFLVNTARGGLVDEQALADALRGGHLGGAATDVLSVEPPRNGNPLLAPDIPRLIVTPHNAWGSREARQRIVGQLAENAEAWKAGR”, the “soluble on expression in E. coli” value is recorded as “not soluble”.
With “MGSDKIHHHHHHMCRWLAYSGRSVPLEAVLFQPEHSLIDQSLNARLGHTTTNGDGFGVGWYGRHSEVPFRYRCLHPAWSDTNLRETARAVRAPLFVAHVRAATGTPTQETNCHPFRFGRWLFVHNGLIREFPLLRRDLMMAVSPQLFRWIEGSTDSEIMFFLALTFGLERDPRAALEQMVGLIEEVGHRYDVEHPINMTVCVTDGQQIVAVRYSSEADSRSLFHSTSFRQLRELYPDDPRIIAAGDDAFLVLSEPLIDVQGVWQEIPEATILVGRAGVIDYSRFTPRMPELSS”, the “soluble on expression in E. coli” value is “not soluble”.
On to “MPGTEKTQHISLTTQVENRLKHQLSIGALKPGARLITKNIAQELGVSITPVREALLRLVSSSALAVAPAQAFMVPEISLESLLEINTIRTALEEMAVVAAAGKITPDREQTLNALLDEFQQALESGVMEKILLANRAFRFEIYHYADMPTLYAMIEQLWVRLGPSLHFLYDNFKLDDYQNGVNLYRKLLNALVTGDKEASRHCLQNVLQQNVATIKNQYFM”, for which the “soluble on expression in E. coli” value is recorded as “not soluble”.
Turning to “GPGSMSHKRPQSSAGESNGAVDLKTPRFDPVSLGLPAEFQLTDYTRLKGCSCKLPQPKLLALLQELSATPGQKDVGMDCSIVPLHHTNSKGEALFLVSTTDFFFPSVSDPFLQGQIGAANVLSDLYSMGIPDCDTMLMLLAASTEMDEHERLITTREIMKGFAERARLATTTVTGGQTVMNPWPLIGGVAMAVVSEAEMVRPTGLLCAGDILVLTKPLGCQVAVNLKQWLLRPSPLYEEAIAGHISPEEIEELYNMATDSMRRLNREGARLMRKHGAHGATDVTGFGILGHANNFGAAQAVGDAPRSLCLVLERLPMFKTAVAASKQMNDKYRLLEGYSAETSGGLLVAFPSTTAAAAFCAELTAVDGGCPSWIVGHVEDRATNAVDGVYARLKDGYEIVEV”, the “soluble on expression in E. coli” value is recorded as “soluble”.
Next, “MSLKINGEVTFKNNQVNYDENAITNLKLSGSDAKKENIKEVYMDLTNVGGPNKVLMDLNLLKDNSLSQSIGINDNVVAGEKEIPVTIVDKNGENHKAKGILTVKSKVGVGPLDFGFDESRIYFTVTDRFFNGDKNNDDPHGNNYDKKNPYTYHGGDLKGLTDKISYLKELGINTIWITPIVENTDFNQMFSQGKTQYSCHGYWAKDFEKLDPHLGTMDDLKTLIDTAHDSGIKIMVDVVLNHAGYGMKNKDNSGANNSPTEEDIAKFKGMFRENPGNDFITQESAGLPDFKTEDPEVREKLIEWQTGWIERSKTEKGNTIDYFRVDTVKHVDNTTWKAFKNKLTEINPSFKTIGEYFGADINNDGGQLQNGQMDALLDFGYKGKARDFVNGNIEGTSAYLDDRASKISNTNLMGQFLSSHDEDGFLKTVGDDLGKQMLAASLQITDKGIPVIYYGEELGMSGWNGFEQGDQNRYDMDFERLNDPKYKKVHDHYEKLLNIRKEYSKIFSKGNRKTIAGNNEEGYSVVLRSYNGKEITPMNLSENNEEKNITNGQNLFVVLNTKNEDKDISFKTNFKEGEKVKDLYSGNEYSIGKDGKVTVKVPSKEEGGTAILALKNREGHHHHHH”: “soluble”; “MLTEEKVLAALNRVKDRDLNKSIVETGGIRELKISGANVSVKVALAQTGTREQMEIQQEIVNVLKGEGAESVGLRFDQLDETEIEKLGGLPKQEFHGPPLLHPNTSTTFIAVTSGKGGVGKSTVSVNLATTLARLGKKVGIIDADIYGFSVPDMMGIEERPKVVGEQIFPVERFGVKVISMGFFVEDNAPVIWRGPMLGKMLNNFFAEVEWGDLDYLILDLPPGTGDVALDIHTMLPHSKEILVTTPHATAAFVAARAGAMALKTHHEIIGVVENMAYFESKITGEKEYVFGQGGGERLAEELKTEVLGRIPLGQPEIDEDDFAPSVYGATHPIGEIYTAIAKRVIDKTTLEHHHHHH”: “soluble”; “MASRRSNAKSRDKPDKYSVLLPTYNERENLPLIVWLLVKYFGESGYNYEIIVIDDGSPDGTLQIAEQLQKIYGADKILLRPRAEKLGLGTAYIHGIKHATGNFVIIMDADLSHHPKFIPQFIEKQKEGGYDLVSGTRYRGDGGVYGWDLRRKLISRGANFVTQVLLRPGASDLTGSFRLYKKEVLEKLVEQCVSKGYVFQMEMIVRARQLGYTIGEVPISFVDRVYGESKLGGNEIVSFLKGLLTLFATT”: “not soluble”.
On to “MSKSTRSRRKKKSKGGDRSERKTNKSERKKKGAKSDIGKKKKKNETVSKDQTNTGVSTGAEGVEKKEKEQWSGDETAKKLVASGAFNTSTITSGFKELSNPKPSADMCSIFKNNPKKSRAPDWPIADNKLIKLSHAPGNFICAAKVDVPEFNRTMIVTQIPDVTVSANIEDFWRMIFQEEIVSIVIAVMPLECSVTLQQLFPLLSGTFSNHGKMFLNNKKVDSAVAMTAYTLEVLPDGCSNSLLSTVYHLHNWKQKQGLENVGELVTTVEKVLKTNENTVLMSMNGIGRAGTMLTLFTSMLSVQKSKEVNPKEILIKLRGERSGLVENADQFNTVHRAMALWFKNKCSDEEVQKKVVEFAPNLTTEAVERSSYEYLNSQHFLYPILLESMLHQHQMKQVLLKKVERSMERSKL”, for which the “soluble on expression in E. coli” value was “not soluble”.
Next, “MGSSHHHHHHSSGLVPRGSHMDRKTEFIECTNAFNEKPKKGIPMLIEKGFIASDSDKDIAEFLFNNNNRMNKKTIGLLLCHPDKVSLLNEYIRLFDFSGLRVDEAIRILLTKFRLPGESQQIERIIEAFSSAYCENQDYDPSKISDNAEDDISTVQPDADSVFILSYSIIMLNTDLHNPQVKEHMSFEDYSGNLKGCCNHKDFPFWYLDRVYCSIRDKEIVMPEEHHGNE”: “soluble”; “MSLPRRPTSSAREGDGGKRSGHTFAAVEAIGRALPDVEVTTAWGQPALKVHGKMFVCVASHKSAEPNSLVVMMAFADRDALVEDDPATYYLRKHYLNHPCVLVRLTRIRLDALRDLVVGAHRLVNVQMRSKSDIGSQGTSRPLRDRREGHHHHHH”: “soluble”; “SEEEDDEVMVREGLMASQREIFSISGPIHLTSIDWNNSYHRTSVASCLVQAVYTLERDRQQNRIGLKSQANHWWEFFNFTLAETLIDDSDGSIYGAVFEYKHFFSYNYHHTPHSKPPPRHVIAFRGTILKPHSRSRDLKLDLRCIRDSLHDSTRFVHAIQVIQSAVAKTGNAAVWLAGHSLGAAVALLAGKIMTRSGFPLESYLFNPPFSSIPIEKLVKSEKLKHGVRFAGSLVKAGVAIAVKGRHHNKGQEDDSFMKLASWIPYLYLNPLDTICSEYIGYFKHRNKMFEIGAGKIERIATRNSLRSLLSGGGGGGSSSDSSSEPLHLLPSAYMTINASKSPNFKRAHGIHQWWDPMFNGEYVLHQFNN”: “soluble”.
Turning to “MNIEEAKKLIDKQSIGKGGVGDIPVVKTHIVKVLLDQIDQPQPEVPRFVADWYEKHKDSLECDLYLYHMSIYDEEVEKDDFYYWMQTSKNPVYTLINMHQFGYTIQKEKLYTVEIPNPNERQLSFVLMRQLSGNVSIKVMHRDNLDLLKTDNDLQLTESEIRKDFDWAWQFREEVVE”, the “soluble on expression in E. coli” value was “not soluble”.
With “MFKKFTREDVHSRSKVKSSIQRTLKAKLVKQYPKIEDVIDELIPKKSQIELIKCEDKIQLYSVDGEVLFFQKFDELIPSLKLVHKFPEAYPTVQVDRGAIKFVLSGANIMCPGLTSAGADLPPAPGYEKGTIVVINAENKENALAIGELMMGTEEIKSVNKGHSIELIHHLGDPLWNFSVE”, the “soluble on expression in E. coli” value is recorded as “not soluble”.
As to “MGSDKIHHHHHHMNDAAPTCTGGCTLNVLHTTTYHYSQPVEHAQQRAVATPPDLPWQSVTAHDTRIEPVPTHQHVRTDAFGNRVLHFMLDVPHTQMQLTCASTVVLTPRWQTLDPSASAPWETVAQSLRFHAAQPFEPATQFAFASPNIALHPSLRDYALPSFGAGVPVVAGAMDLMRRIHADFTYHSESTEVHTPAMQAFAQRSGVCQDFAQVMIGCLRSVGVAARYVSGYLCTEPPPGEERLVGADASHAWVSVYCPVAGWVDLDPTNNVLADTRHVTLAWGRDYSDVPLLHGVIVGGGAHGVDVGVTVVPVD”, the “soluble on expression in E. coli” value was “not soluble”.
Next, “MKMKEFLDLLNESRLTVTLTGAGISTPSGIPDFRGPNGIYKKYSQNVFDIDFFYSHPEEFYRFAKEGIFPMLQAKPNLAHVLLAKLEEKGLIEAVITQNIDRLHQRAGSKKVIELHGNVEEYYCVRCEKKYTVEDVIKKLESSDVPLCDDCNSLIRPNIVFFGENLPQDALREAIGLSSRASLMIVLGSSLVVYPAAELPLITVRSGGKLVIVNLGETPFDDIATLKYNMDVVEFARRVMEEGGIS”: “soluble”; “MREMKKLVKIATSLTLMGGIFVSANGVSANTDVTQKSSPNIMIEFDDVTTDHWAYDEITNLVYHRIMYGYGNGKFGTEDNITREQAAAVLHRALGLKRSVFDANPYGDISGKSTMFPYEILHLTNLGIFKGDENGNFRPKDTLTRAELAQILTKAYELKAKSPHTFTDIPEKHWARDAISALQSNKVAVGTGDGKFEPEMLVTRGQFAKFLQRSIDNSPGKME”: “not soluble”.
